Values quoted from earlier work as cited in article PMC8506081.

Columns and labels:
PSD-95 (Homo sapiens) = PSD-95 (Homo sapiens) (UniProt P78352)
[1] = target: PSD-95 PDZ2 (Homo sapiens) (UniProt P78352)
Sequence of PSD-95 PDZ2 (Homo sapiens) (P78352 157-249): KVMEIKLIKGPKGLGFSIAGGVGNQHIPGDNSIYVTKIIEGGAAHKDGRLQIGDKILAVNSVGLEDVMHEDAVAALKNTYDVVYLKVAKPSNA

Sequence of PSD-95 (Homo sapiens) (P78352 whole entry): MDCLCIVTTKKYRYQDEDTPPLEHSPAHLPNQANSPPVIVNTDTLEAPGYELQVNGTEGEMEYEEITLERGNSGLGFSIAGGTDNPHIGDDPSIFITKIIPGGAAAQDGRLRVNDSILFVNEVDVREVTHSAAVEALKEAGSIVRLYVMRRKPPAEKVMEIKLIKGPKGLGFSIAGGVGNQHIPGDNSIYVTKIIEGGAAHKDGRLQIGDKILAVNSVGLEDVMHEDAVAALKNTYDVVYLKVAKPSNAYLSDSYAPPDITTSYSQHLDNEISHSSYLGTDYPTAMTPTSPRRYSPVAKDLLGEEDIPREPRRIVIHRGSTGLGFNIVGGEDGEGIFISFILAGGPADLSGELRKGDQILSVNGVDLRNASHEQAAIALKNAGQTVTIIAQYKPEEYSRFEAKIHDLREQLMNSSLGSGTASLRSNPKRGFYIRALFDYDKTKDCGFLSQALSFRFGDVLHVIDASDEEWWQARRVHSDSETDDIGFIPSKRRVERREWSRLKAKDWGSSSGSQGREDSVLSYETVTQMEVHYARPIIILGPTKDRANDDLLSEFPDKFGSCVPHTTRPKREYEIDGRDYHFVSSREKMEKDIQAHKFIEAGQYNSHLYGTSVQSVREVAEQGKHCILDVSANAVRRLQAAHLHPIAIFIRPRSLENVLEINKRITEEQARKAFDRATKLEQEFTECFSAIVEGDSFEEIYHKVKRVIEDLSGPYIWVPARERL

| Substance | Ki (PSD-95 (Homo sapiens)) [nM] | Ki [1] [nM] |
| --- | --- | --- |
| AVLX-125 | 10 | – |
| NA-1 | – | 4400 |
